Measurements taken from the supplement of paper PMC10126150.
± gives the standard deviation of the averaged measurements.

System: ATP
Assay: switch fluorescence ratio, 500 uM ATP over buffer (Cy3 cluster intensity, sum of 5 cycles each) (fold (ratio)); higher = stronger signal-on switching upon ATP binding; sequences stand for … in TCGTCGGCAGCGTCAGATGTGTATAAGAGACAGTTTTTTTTTTTTTTTTTTTTTTTTT…TC
Conditions: aptamer strand: ATP DNA aptamer (quencher-CACCTGGGGGAGTATTGCGGAGGAAGG + anchor), 100 nM annealed; ATP concentration: 500 uM
Procedure, shortened: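 Switching-strand clusters labelled with Cy3 on a modified Illumina MiSeq flow-cell were annealed to 100 nM quencher-labelled ATP aptamer, imaged in selection buffer, and re-imaged after 15 min with 500 uM ATP at 22 °C. This was done over five cycles with NaOH stripping and re-annealing in between. The fluorescence ratio is summed target-cycle over summed buffer-cycle Cy3 intensity per cluster, averaged per switch-domain sequence, excluding clusters outside 100-1000 RFU.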
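Note: ATP exposure 15 min at 22 °C before imaging.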

| Sequence | switch fluorescence ratio |
| --- | --- |
| CGCATTCTAA | 1.31 ± 0.019 |
| ACATCTATTC | 1.01 ± 0.034 |
| TGGTTGGCTC | 0.985 ± 0.042 |
| CATTTTGTCT | 1.018 ± 0.0047 |
| GGAGGTAATT | 0.981 ± 0.027 |
| GGAGCAGCTA | 1.06 ± 0.028 |
| TTTTGAGTTA | 0.976 ± 0.039 |
| TCCTTTTATG | 0.98329 ± 2.8e-05 |
| GTCCGAAAGA | 1.18 ± 0.095 |
| CTGAGGTAAT | 1.94 ± 0.21 |
| TGGGTGGCTC | 1.011 ± 0.0015 |
| CGTCTAAGGG | 1.06 ± 0.13 |
| ACATTCTGGA | 0.988 ± 0.031 |
| GCGGCTGGGA | 1.047 ± 0.0092 |
| AACTACGCTT | 1.48 ± 0.099 |
| CATTGGGGGG | 0.99 ± 0.038 |
| CCGGAAAAAG | 1.02 ± 0.074 |
| CAAAGATAAT | 1.01 ± 0.039 |
| TTGTTTCTTG | 0.981 ± 0.049 |
| AAGTGGGGTG | 0.982 ± 0.019 |
| GAACGCGTCC | 1.1 ± 0.015 |
| TTGGGGGCCA | 0.9898 ± 0.0041 |
| CAGGGTACGA | 1.05 ± 0.012 |

| Sequence | switch fluorescence ratio |
| --- | --- |
| TTGCCAATCC | 1.04 ± 0.04 |
| GTGGGGTTTT | 0.983 ± 0.022 |
| AACGTCAGTT | 1.003 ± 0.0017 |
| TAATTGTAAG | 0.979 ± 0.017 |
| TTATGTACTT | 1.05 ± 0.021 |
| GGGGGGCGGC | 1.01 ± 0.046 |
| TTTTTACTCC | 1.48 ± 0.53 |
| TAGCGGCGTC | 1 ± 0.098 |
| TATCGGTGTT | 0.991 ± 0.027 |
| TTTTCTATTT | 0.998 ± 0.018 |
| TTAGGAGGGG | 1.03 ± 0.11 |
| GAGTGCAATT | 1.19 ± 0.034 |
| CACAGCTCAC | 1.79 ± 0.065 |
| CCTGGGGGGG | 1.03 ± 0.05 |
| GGGGCAGCAG | 1.02 ± 0.031 |
| CTGACCGGAG | 1.24 ± 0.036 |
| GGTGGAGGGG | 1 ± 0.0022 |
| AGGGAGGATT | 0.965 ± 0.034 |
| GGATAAAAGG | 0.988 ± 0.011 |
| AGGGTCAATC | 1.04 ± 0.05 |
| TGAGTTCTTG | 0.982 ± 0.046 |
| CAGAGGCGTG | 0.9831 ± 0.0079 |
| TAGGGAGGGC | 1.03 ± 0.041 |

| Sequence | switch fluorescence ratio |
| --- | --- |
| GCACATGAAC | 1.1 ± 0.022 |
| CAGCTTTCGG | 1.03 ± 0.048 |
| GTAGAAGGGG | 1 ± 0.021 |
| GGGGGGACAC | 1.031 ± 0.0019 |
| CGGGGAGGAA | 1.01 ± 0.072 |
| TTTTCGCTTA | 1.01 ± 0.03 |
| TATTGGCTTT | 0.989 ± 0.014 |
| GGGGTTAATA | 1 ± 0.067 |
| GTTTGGCCGG | 0.998 ± 0.03 |
| TTTCGAGGAT | 1.006 ± 0.0044 |
| TCCTGATTGT | 0.988 ± 0.022 |
| GATAATATAA | 1.02 ± 0.026 |
| GAAAGTTAGG | 1.1 ± 0.14 |
| GTTGAGGTTC | 1.03 ± 0.035 |
| ATGTAATATG | 0.992 ± 0.024 |
| GCTGTTTACG | 1.03 ± 0.031 |
| TATATTTCGG | 0.995 ± 0.044 |
| TGAGAGTAAC | 0.946 ± 0.07 |
| GGGATAACAG | 1.04 ± 0.011 |
| GGCACCTACG | 1.53 ± 0.14 |
| CTGGTTAAGG | 0.957 ± 0.017 |
| GAGAGGGTTT | 1 ± 0.011 |
| GACCATTGTT | 1.01 ± 0.013 |

| Sequence | switch fluorescence ratio |
| --- | --- |
| TGTGGGAAAA | 1.02 ± 0.048 |
| GAAAGGGGTC | 1.01 ± 0.074 |
| AGCTGCTTGC | 1.04 ± 0.066 |
| TGAATGTTTG | 1.01 ± 0.036 |
| TAAGCTGCCA | 1.02 ± 0.015 |
| GGTAGTTGGT | 1.01 ± 0.011 |
| GCTTTTGGCG | 1.02 ± 0.021 |
| GACTTGGGAT | 1.034 ± 0.0019 |
| GGGTTTCTCT | 0.994 ± 0.032 |
| CTGGCCAAGT | 0.999 ± 0.02 |
| GCATTGGGGT | 0.994 ± 0.012 |
| TTTAAGCAGA | 1.04 ± 0.041 |
| AAATAGTGG | 0.9626 ± 0.0063 |
| GAATGTTTGA | 0.984 ± 0.044 |
| CTCAGTATTT | 1.01 ± 0.018 |
| CTAAGAAGGG | 1.05 ± 0.061 |
| ATTGGTATCT | 0.979 ± 0.014 |
| AGACTGTCGA | 1 ± 0.012 |
| GTGGAAGTCG | 0.966 ± 0.017 |
| TCGTGCATGG | 1.046 ± 0.008 |
| GACATGGACG | 1.088 ± 0.0062 |
| TGGGGGGGAC | 1.04 ± 0.069 |
| GGAGATGGGG | 1.02 ± 0.018 |

| Sequence | switch fluorescence ratio |
| --- | --- |
| TTAAGGTGTA | 1.1 ± 0.064 |
| AGGTACACCT | 1.08 ± 0.053 |
| AAAAGTACGC | 1.09 ± 0.11 |
| TAGTTACGAT | 1.04 ± 0.012 |
| GGTGGGGAGA | 1.017 ± 0.0086 |
| ATATCCAATA | 0.99 ± 0.036 |
| GAGGTGTAGG | 1.01 ± 0.02 |
| TATGGGGTGT | 1.01 ± 0.033 |
| TTCGGTTGTG | 0.96 ± 0.013 |
| TCATACTCAA | 1.4 ± 0.018 |
| TAGGAGTTTG | 0.9894 ± 0.0046 |
| CAAGAAGTGG | 0.993 ± 0.041 |
| AGTCATATAG | 1.062 ± 0.0056 |
| TTATAAACCT | 1.99 ± 1.4 |
| CGTTTGGCCC | 0.988 ± 0.044 |
| TTTCATGAAT | 0.987 ± 0.0027 |
| AGTCCGTGCT | 1.05 ± 0.044 |
| TTTAAAAAAG | 1.02 ± 0.028 |
| TCGTAGTATT | 0.993 ± 0.021 |
| AATGCGGGGG | 1 ± 0.025 |
| CGATCCGTCC | 1.09 ± 0.032 |
| CGATTATTTG | 0.9786 ± 0.0053 |
| ACAGCTGTTA | 1.02 ± 0.019 |

| Sequence | switch fluorescence ratio |
| --- | --- |
| TCATTGGGGA | 1.032 ± 0.0071 |
| AGATGACGGG | 0.975 ± 0.033 |
| TCGAGGTAGA | 1.01 ± 0.05 |
| TAAATTTTGG | 1.008 ± 0.0096 |
| TCGTGAACCC | 1.01 ± 0.023 |
| ACAGTTATTC | 1.02 ± 0.048 |
| ATCGCGGGTT | 0.99 ± 0.05 |
| TTTTTATGGC | 0.978 ± 0.028 |
| CCAGTAGACT | 1.06 ± 0.035 |
| ATCGCTTACA | 1.02 ± 0.028 |
| TGAGTTTTTT | 0.982 ± 0.039 |
| GACATTGTTA | 1.01 ± 0.063 |
| CGGGAGCGTC | 1.02 ± 0.01 |
| TCAGGGGACG | 1 ± 0.025 |
| TTTGAAAGGA | 1.01 ± 0.032 |
| GCTGTGTGGG | 1.03 ± 0.032 |
| TTGAAAAAAC | 1.04 ± 0.074 |
| TTTGAGTCAG | 0.994 ± 0.035 |
| GGGGACTCTT | 0.977 ± 0.023 |
| TTAAATCGGC | 0.991 ± 0.043 |
| CAGGGCAATG | 1.2 ± 0.045 |
| TGAGGCAAGG | 1.69 ± 0.47 |
| TTTACAACGC | 1.05 ± 0.012 |

| Sequence | switch fluorescence ratio |
| --- | --- |
| TAGCGGGGCG | 0.9881 ± 0.0061 |
| TTTCAAACCT | 1.57 ± 0.64 |
| TTTATCGGCT | 1.06 ± 0.078 |
| GAAGGGTGGG | 1 ± 0.022 |
| TTAATAGATG | 1 ± 0.029 |
| CTAGGTGTGT | 1.02 ± 0.051 |
| TAGGATTATA | 0.964 ± 0.021 |
| CTGAAATCTG | 0.9971 ± 0.0094 |
| GTGATACTGG | 1.04 ± 0.014 |
| CATCAGTTGA | 1.02 ± 0.018 |
| ACTGAGGATA | 1 ± 0.037 |
| GCCAATTGCA | 0.97965 ± 0.00047 |
| ATTCGGGGGC | 1.11 ± 0.2 |
| TGGTTTATAC | 1.32 ± 0.43 |
| TTTGACCGTT | 0.988 ± 0.035 |
| ATTGTCGG | 0.972 ± 0.028 |
| GTGGGTTCAG | 1 ± 0.018 |
| CTCGGAGAGG | 0.987 ± 0.033 |
| TGGACTTTTT | 0.971 ± 0.057 |
